B1: C1orf55 (parent)
chain: FTSPDYQQQCHEMAERLEDSVLKG
B2: RTP4 (parent)
chain: TYWEHWTSQGQVRMRLFGQRCQKC

Variants of: B1
Test: protein stability index of a GFP-peptide fusion (GPS, HEK-293T) (PSI 1-6); higher = more stable
Conditions: c terminus: a fixed tail appended
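Also: lentivirally expressed fusions sorted by FACS into six bins by GFP to DsRed ratio, PSI derived from sequencing read proportions per bin multiplied by bin number.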

Protein stability index, by site and new letter:
K23: Y 1.99 | E 2.35 | D 2.57 | I 2.1 | W 2.39 | A 1.4 | L 2.37 | N 2.6 | P 2.35
Q9: P 2.59 | Y 2.09 | I 1.29 | L 1.7 | R 1.28 | K 1.92 | F 2.12 | N 1.52 | T 1.38 | W 2.98
F1: M 4.55 | V 4.07 | A 4.88 | H 4.59 | R 3.98 | Y 1.94 | Q 4.35
A14: T 2.07 | S 2 | L 2.26 | I 2.45 | Y 1.92 | G 2.48 | H 2.39 | M 2.27 | V 2 | E 2.63 | C 2.06
M13: R 2.09 | N 2.66 | H 2.27 | D 2.55 | Y 1.93 | V 1.91 | I 1.97
E15: R 2.04 | S 2.04 | P 2.33 | Q 1.67 | M 1.8 | F 1.78 | Y 1.22
R16: T 2.38 | W 1.9 | Q 2.4 | S 2.21 | N 2.52 | K 1.93 | D 2.85
C10: D 4.68 | F 2.14 | M 2.41 | Y 3.3 | A 3.17 | V 2.29 | H 2.74 | I 2.59 | W 2.05
E18: F 1.65 | A 1.96 | H 1.74 | K 1.74 | R 2.36 | M 1.97 | W 1.55
Y6: M 3.94 | G 4.76 | E 5.43 | K 4.44 | A 4.56 | I 3.94 | V 4.37 | Q 4.78
G24: R 1.87 | Q 2 | Y 1.8 | C 2.52 | F 2.01 | P 2
E12: G 2.13 | V 1.88 | M 1.89 | T 1.47 | K 1.32 | Q 2.23 | I 2.98 | H 2.36
S20: Y 1.91 | N 1.55 | R 2.47 | Q 2.9 | V 2.7 | H 1.75 | A 1.95
T2: L 3.48 | F 3.69 | W 3.04 | R 4.16 | M 3.79 | N 4.04 | Y 2.88 | Q 2.87 | I 2.14 | A 2.62 | G 3.24 | V 2.45 | C 1.56
D5: K 2.57 | C 3.59 | F 2.09 | P 2.94 | L 2.33 | N 2.47 | I 2.15
L17: G 2.54 | A 2.86 | N 2.23 | C 2.25 | W 1.98 | F 2.01 | P 2.66 | Q 2.34 | R 2.72
D19: Q 2.04 | F 1.79 | W 2.23 | E 2.04 | C 2.04 | T 1.76 | A 1.83 | I 2.86 | V 2.03
V21: M 1.9 | C 2.12 | H 2.41 | G 2.09 | D 2.34 | T 2.65 | I 2.55
S3: D 3.25 | E 4.12 | V 3.92 | P 3.61 | Q 3.1 | R 2.54 | F 3.06 | T 2.52
H11: S 2.13 | C 1.8 | Q 2.87 | F 2.26 | N 2.13 | M 2.33 | A 2.83
Q8: V 2.47 | E 3.44 | F 2.44 | G 2.81 | S 2.18 | K 2 | A 1.96 | D 3.9
P4: Y 1.98 | E 4.3 | N 2.52 | G 2.06 | C 2.87 | S 2.26 | I 2.37
L22: H 2.05 | M 2.35 | S 2.76 | W 2.21 | E 2.1 | C 2.62 | A 2.42 | Y 2.26 | G 2.57
Q7: T 2.02 | R 1.85 | V 2.02 | D 4.18 | F 3.33 | H 2.14

Variants of: B2
Test: as above
Conditions: c terminus: a fixed tail appended

Protein stability index of substitutions, site by site:
S8: I 2.05 | K 2.5 | N 1.32 | V 1.67 | P 1.66 | T 3.23 | R 1.89 | G 2.05 | D 1.87 | Y 1.82 | C 1.79 | L 1.23 | Q 1.77 | M 3.02 | E 1.76 | A 3.23 | H 2.56
W3: C 5.05 | N 2.98 | M 2.28 | A 2.07 | Q 2.51 | I 1.69 | H 3.61 | Y 1.54 | P 2.25 | R 1.73 | E 1.77 | G 1.63 | D 2.88 | T 3.21 | K 2.96 | F 1.75
T7: F 1.21 | H 1.96 | P 2.27 | K 2.04 | A 1.53 | N 1.76 | Y 1.2 | C 3.39 | Q 1.77 | S 1.79 | V 1.93 | L 1.61 | W 2.06 | D 1.86 | R 1.98
H5: P 3.28 | Y 1.58 | R 1.38 | M 1.53 | D 2.07 | T 2.12 | Q 2.43 | W 1.16 | E 2.19 | N 1.59 | A 2.43 | G 1.62
G10: H 1.76 | C 1.87 | D 2.21 | Q 1.8 | P 1.91 | M 1.68 | I 2.47 | F 2.53 | T 2.27 | L 1.89 | S 2.39 | A 1.33 | R 1.69
Y2: A 2.35 | K 2.19 | D 1.66 | H 1.99 | I 1.74 | C 2.69 | G 3.25 | N 2.49 | M 2.39 | T 2.46 | W 1.53 | F 1.32 | E 2.98 | P 2.1
E4: I 1.77 | N 1.1 | C 1.15 | P 1.49 | M 2.86 | G 2.45 | K 3.32 | Q 3.01 | H 1.71
W6: K 1.6 | L 1.61 | Q 2.65 | T 1.94 | R 2.7 | M 1.52 | A 2.4 | P 2.07 | N 2.11 | C 2.25 | E 1.95 | D 3.38 | V 2.32 | F 1.39 | S 2.13 | G 1.75 | Y 2.05
T1: P 2.27 | V 1.86 | E 1.36 | H 2.48 | C 2.67 | D 1.82 | Q 2.15 | S 2.18 | W 2.35 | Y 2.21 | A 1.19 | L 1.88 | G 2.81
Q9: P 1.6 | K 2.17 | A 1.95 | E 2.02 | T 1.8 | R 2.24 | W 1.69 | F 1.77 | D 1.4 | H 1.18 | G 1.27 | I 2.08 | C 1.48 | N 2.08 | V 2.5
